Numbered stars: 1 amine (or outer) side, 2 acyl side, 3 side chain; on linkers, the order of the positions; unused ones are H or OH. Bridge positions count the residues as written; N and C are the ends. Square brackets hold non-standard residues; d marks the D form. Ends that are not written are not given here. Peptide text beside a SMILES is read from it. Bph3OMe = (S)-2-amino-3-(3'-methoxy-[1,1'-biphenyl]-4-yl)propanoic acid, COc1cccc(-c2ccc(C[C@H](N[*:1])C(=O)[*:2])cc2)c1; KCOpipzaa = N6-(4-(carboxymethyl)piperazine-1-carbonyl)-L-lysine, O=C(NCCCC[C@H](N[*:1])C(=O)[*:2])N1CCN(CC(=O)[*:3])CC1; Bph3F = (S)-2-amino-3-(3'-fluoro-[1,1'-biphenyl]-4-yl)propanoic acid, O=C([C@H](Cc1ccc(-c2cccc(F)c2)cc1)N[*:1])[*:2]; Cha4tH = (S)-2-amino-3-((1r,4S)-4-hydroxycyclohexyl)propanoic acid, O=C([C@H](C[C@H]1CC[C@H](O[*:3])CC1)N[*:1])[*:2]; F4aao = (S)-2-amino-3-(4-(carboxymethoxy)phenyl)propanoic acid, O=C([C@H](Cc1ccc(OCC(=O)[*:3])cc1)N[*:1])[*:2]; 3Pal(6-Ph) = N[C@@H](Cc1ccc(-c2ccccc2)nc1)C(=O)O; Phe(4-COOH) = N[C@@H](Cc1ccc(C(=O)O)cc1)C(=O)O; Bip = N[C@@H](Cc1ccc(-c2ccccc2)cc1)C(=O)O; Phe(4-F) = N[C@@H](Cc1ccc(F)cc1)C(=O)O; Phe(4-Me) = Cc1ccc(C[C@H](N)C(=O)O)cc1; cisHyp = O=C(O)[C@@H]1C[C@H](O)CN1; Hyp = O=C(O)[C@@H]1C[C@@H](O)CN1; NMeF = CN[C@@H](Cc1ccccc1)C(=O)O; 4Pal = N[C@@H](Cc1ccncc1)C(=O)O; Aad = N[C@@H](CCCC(=O)O)C(=O)O; Cha = N[C@@H](CC1CCCCC1)C(=O)O; MeY = Methyl-L-tyrosine; Abu = CC[C@H](N)C(=O)O; βAla = NCCC(=O)O
Assays:
BMP7 = molecular target: T1, BMP7 (Homo sapiens, UniProt P18075); assay: BMP7 signal transduction inhibitory activity: SMAD1 phosphorylation by BMP7 stimulus, A549 cells; format: cell-based; conditions: for aLIZA BMP7 (10 nM) % Inh: SMAD1 phosphorylation by BMP7 stimulus; for aLISA BMP7: A549 cells
T1 sequence (P18075 293-431): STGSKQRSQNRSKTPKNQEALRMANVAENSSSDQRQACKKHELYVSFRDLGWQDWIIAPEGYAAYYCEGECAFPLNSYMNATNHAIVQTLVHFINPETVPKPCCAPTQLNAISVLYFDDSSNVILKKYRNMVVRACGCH
In short: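 Inhibition is read as reduced BMP7-driven SMAD1 phosphorylation in human A549 cells, with the BMP7 stimulus at 10 nM. Three-point peptide concentrations spanned 1–1,000 nM depending on the peptide series. Some peptides received eight-point, 1/3-ratio titrations from 100 nM or 1,000 nM, alongside a Noggin control.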

BMP4 = molecular target: T2, BMP4 (Homo sapiens, UniProt P12644); assay: BMP4 signal transduction inhibitory activity: SMAD1 phosphorylation by BMP4 stimulus, AlphaLISA SureFire, A549 cells; format: cell-based; conditions: for aLIZA BMP4 (0.2 nM) % Inh: SMAD1 phosphorylation by BMP4 stimulus; for aLISA BMP4: A549 cells
T2 sequence (P12644 293-408): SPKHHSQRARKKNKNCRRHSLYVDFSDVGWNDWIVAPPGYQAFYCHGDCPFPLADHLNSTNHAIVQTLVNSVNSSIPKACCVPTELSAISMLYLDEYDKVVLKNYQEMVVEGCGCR

[1] = peptide conc. in assay 10, 100, 1000 nM, class symbols
[2] = peptide conc. in assay 0.02, 0.2, 2 nM, class symbols
[3] = BMP7 10 nM stimulus, peptide conc. in assay 100, 300, 1000 nM, class symbols
[4] = BMP4 0.2 nM stimulus, peptide conc. in assay 0.02, 0.2, 2 nM, class symbols
[5] = SMAD1 phosphorylation, BMP7 10 nM, peptide conc. in assay 1, 10, 100 nM
[6] = SMAD1 phosphorylation, BMP4 0.2 nM, peptide conc. in assay 0.2, 2, 20 nM
[7] = BMP7 10 nM stimulus, peptide conc. in assay 10, 30, 90 nM
[8] = BMP4 0.2 nM stimulus, peptide conc. in assay 2, 20, 200 nM
[9] = 10 nM BMP7, peptides of Synthesis 2, peptide 1, 10, 100 nM
[10] = SMAD1 phosphorylation, peptides of Synthesis 2, peptide 0.02, 0.2, 2 nM

248 (E[KCOpipzaa]VYVDR[3Pal(6-Ph)]SYV[Bip]Y[Phe(4-COOH)][Phe(4-COOH)]SCG-NH2) [compound 248]
aLIZA BMP7 (10 nM) % Inh (BMP7; [1]): ND (the inhibitory activity was less than 30% at the maximum concentration evaluated)
aLIZA BMP4 (0.2 nM) % Inh (BMP4; [2]): C (showed less than 30% of inhibitory activity in 0.2 nM-addition zone and showed 30% or more of inhibitory activity in 2 nM-addition zone)

296 (ERV[Phe(4-COOH)]V[KCOpipzaa]R[3Pal(6-Ph)][KCOpipzaa]Y[Hyp][Bph3OMe]Y[Phe(4-COOH)][Phe(4-COOH)]SCG-NH2; not fully specified (N-terminus, bridges); also: cyclic peptide, ring not given here) [compound 296]
aLIZA BMP7 (10 nM) % inh (BMP7; [3]): ND (the inhibitory activity was less than 30% at the maximum concentration evaluated)
aLIZA BMP4 (0.2 nM) % inh (BMP4; [4]): B (showed less than 30% of inhibitory activity in 0.02 nM-addition zone and showed 30% or more of inhibitory activity in 0.2 nM-addition zone)

348 (FG[NMeF]G[Bip]GDD[Cha]A[NMeF]LACG-NH2; not fully specified (N-terminus, bridges)) [compound 348]
aLISA BMP7 (10 nM) % inh (BMP7; [5]): D (showed less than 30% of inhibitory activity in 10 nM-addition zone and showed 30% or more of inhibitory activity in 100 nM-addition zone)
aLISA BMP4 (0.2 nM) % inh (BMP4; [6]): A (showed less than 30% of inhibitory activity in 2 nM-peptide-addition zone and showed 30% or more of inhibitory activity in 20 nM-addition zone)

276 (ERV[Phe(4-COOH)]V[KCOpipzaa]R[3Pal(6-Ph)][KCOpipzaa]Y[Hyp][Bip][4Pal][Phe(4-COOH)][Phe(4-COOH)]SCG-NH2; not fully specified) [compound 276]
aLIZA BMP7 (10 nM) % inh (BMP7; [3]): ND (the inhibitory activity was less than 30% at the maximum concentration evaluated)
aLIZA BMP4 (0.2 nM) % inh (BMP4; [4]): B (showed less than 30% of inhibitory activity in 0.02 nM-addition zone and showed 30% or more of inhibitory activity in 0.2 nM-addition zone)

367 (FG[NMeF]GFGDE[Cha]Q[NMeF]LHCG-NH2; not fully specified (N-terminus, bridges)) [compound 367]
aLISA BMP7 (10 nM) % inh (BMP7; [5]): D (showed less than 30% of inhibitory activity in 10 nM-addition zone and showed 30% or more of inhibitory activity in 100 nM-addition zone)
aLISA BMP4 (0.2 nM) % inh (BMP4; [6]): ND (the inhibitory activity was less than 30% at the maximum concentration evaluated)

399 (FG[NMeF]G[Bip]GDE[Cha]Q[NMeF]L[Abu]CG-NH2; not fully specified) [compound 399]
aLISA BMP7 (10 nM) % inh (BMP7; BMP7 10 nM stimulus, peptide conc. in assay 1, 10, 100 nM): C (showed less than 30% of inhibitory activity in a zone to which the peptide was added in an amount of 1 nM and showed 30% or more of inhibitory activity in 10 nM-addition zone)
aLISA BMP4 (0.2 nM) % inh (BMP4; BMP4 0.2 nM stimulus, peptide conc. in assay 0.2, 2, 20 nM): ND (the inhibitory activity was less than 30% at the maximum concentration evaluated)

95 ({CH2CO}-ERVYVDR[Bip]SYP[Bip]Y[Phe(4-COOH)][Phe(4-COOH)]SC[βAla][dE]-OH; thioether N-17; not fully specified) [compound 95]
aLISA BMP7 (BMP7; inhibition of SMAD1 phosphorylation by BMP7 stimulus, peptides of Synthesis 2, classes A-D, ND): C (showed less than 50% of inhibitory activity in 10 nM-addition zone and showed 50% or more of inhibitory activity in 100 nM-addition zone)
aLISA BMP4 (BMP4; inhibition of SMAD1 phosphorylation by BMP4 stimulus, peptides of Synthesis 2, classes A-C, ND): A (showed an inhibitory activity of 50% or more in a zone to which the peptide was added to in an amount of 0.2 nM)

247 (ERV[Phe(4-F)]VDR[3Pal(6-Ph)]SYV[Bip]Y[Phe(4-COOH)][Phe(4-COOH)]SCG-NH2) [compound 247]
aLIZA BMP7 (10 nM) % Inh (BMP7; [1]): E (showed less than 30% of inhibitory activity in 100 nM-addition zone and showed 30% or more of inhibitory activity in 1,000 nM-addition zone)
aLIZA BMP4 (0.2 nM) % Inh (BMP4; [2]): C (showed less than 30% of inhibitory activity in 0.2 nM-addition zone and showed 30% or more of inhibitory activity in 2 nM-addition zone)

63 (Ac-E[KCOpipzaa]VYVDR[Bip]PYP[Bip]Y[Phe(4-COOH)][Phe(4-COOH)]SCG-NH2; thioether (positions not given here); not fully specified (bridges)) [compound 63]
aLISA BMP7 (BMP7; inhibition of SMAD1 phosphorylation by BMP7 stimulus, AlphaLISA, class by peptide concentration zone): C (showed less than 50% of inhibitory activity in 10 nM-addition zone and showed 50% or more of inhibitory activity in 100 nM-addition zone)
aLISA BMP4 (BMP4; inhibition of SMAD1 phosphorylation by BMP4 stimulus, AlphaLISA, class by peptide concentration zone): A (showed an inhibitory activity of 50% or more in a zone to which the peptide was added to in an amount of 0.2 nM)

270 (QRV[F4aao]VDR[3Pal(6-Ph)]SYV[Bip][4Pal][Phe(4-COOH)][Phe(4-COOH)]SCG-NH2; not fully specified) [compound 270]
aLIZA BMP7 (10 nM) % inh (BMP7; BMP7 10 nM stimulus, peptide conc. in assay 10, 100, 1000 nM, class symbols): ND (the inhibitory activity was less than 30% at the maximum concentration evaluated)
aLIZA BMP4 (0.2 nM) % inh (BMP4; [4]): C (showed less than 30% of inhibitory activity in 0.2 nM-addition zone and showed 30% or more of inhibitory activity in 2 nM-addition zone)

375 ([Phe(4-Me)]G[NMeF]G[Bip]GDD[Cha]A[NMeF]LHCG-NH2; not fully specified) [compound 375]
aLISA BMP7 (10 nM) % inh (BMP7; [7]): F (showed less than 30% of inhibitory activity in 10 nM-addition zone and showed 30% or more of inhibitory activity in 30 nM-addition zone)
aLISA BMP4 (0.2 nM) % inh (BMP4; [8]): B (showed less than 30% of inhibitory activity in 20 nM-addition zone and showed 30% or more of inhibitory activity in 200 nM-addition zone)

CC(C)C[C@@H]1NC(=O)[C@H](Cc2ccccc2)N(C)C(=O)[C@H](CCCC(=O)O)NC(=O)[C@H](CC2CCCCC2)NC(=O)[C@H](CCC(=O)O)NC(=O)[C@H](CC(=O)O)NC(=O)CNC(=O)[C@H](Cc2ccc(-c3ccccc3)nc2)NC(=O)CNC(=O)[C@H](Cc2ccccc2)N(C)C(=O)CNC(=O)[C@H](Cc2ccccc2)NC(=O)CSC[C@@H](C(=O)NCCC(=O)N[C@H](CCC(=O)O)C(=O)O)NC(=O)[C@@H]2C[C@H](O)CN2C1=O [SEQ ID No. 415, ClAc-F-G-MeF-G-3Py6Ph-G-D-E-Cha-Hgl-MeF-L-P4Sh-C-bA-de-OH] ({CH2CO}-FG[NMeF]G[3Pal(6-Ph)]GDE[Cha][Aad][NMeF]L[cisHyp]C[βAla][dE]-OH; thioether N-14)
aLISA BMP7 (BMP7; [9]): C (showed less than 50% of inhibitory activity in 10 nM-addition zone and showed 50% or more of inhibitory activity in 100 nM-addition zone)
aLISA BMP4 (BMP4; [10]): A (showed an inhibitory activity of 50% or more in a zone to which the peptide was added to in an amount of 0.2 nM)

387 (FG[MeY]G[Bip]GDD[Cha]A[NMeF]LHCG-NH2; not fully specified) [compound 387]
aLISA BMP7 (10 nM) % inh (BMP7; [7]): F (showed less than 30% of inhibitory activity in 10 nM-addition zone and showed 30% or more of inhibitory activity in 30 nM-addition zone)
aLISA BMP4 (0.2 nM) % inh (BMP4; [8]): A (showed less than 30% of inhibitory activity in 2 nM-peptide-addition zone and showed 30% or more of inhibitory activity in 20 nM-addition zone)

24 ({CH2CO}-A[KCOpipzaa]VYV[KCOpipzaa]R[Bip]PYP[Bip]Y[Phe(4-COOH)][Phe(4-COOH)]SCG-NH2; thioether N-17; not fully specified) [compound 24]
aLISA BMP7 (BMP7; [9]): C (showed less than 50% of inhibitory activity in 10 nM-addition zone and showed 50% or more of inhibitory activity in 100 nM-addition zone)
aLISA BMP4 (BMP4; [10]): A (showed an inhibitory activity of 50% or more in a zone to which the peptide was added to in an amount of 0.2 nM)

320 (ERV[Phe(4-COOH)][Cha4tH][KCOpipzaa]R[3Pal(6-Ph)][KCOpipzaa]Y[Hyp][Bph3F][4Pal][Phe(4-COOH)][Phe(4-COOH)]SCG-NH2; not fully specified) [compound 320]
aLIZA BMP7 (10 nM) % inh (BMP7; BMP7 10 nM, peptide 10, 100, 1000 nM, Table 6): E (showed less than 30% of inhibitory activity in 100 nM-addition zone and showed 30% or more of inhibitory activity in 1,000 nM-addition zone)
aLIZA BMP4 (0.2 nM) % inh (BMP4; BMP4 0.2 nM, peptide 0.02, 0.2, 2 nM, Table 6): B (showed less than 30% of inhibitory activity in 0.02 nM-addition zone and showed 30% or more of inhibitory activity in 0.2 nM-addition zone)

Source: patent US20250361274A1, “PEPTIDE AND PEPTIDE-CONTAINING AGENT” (PEPTIDREAM INC., priority 2022, published 2025)
